Assay results published in US6849598B1, “Therapeutic compositions comprising bactericidal/permeability-increasing (BPI) protein products” (XOMA, priority 1995, dated 2005).

What was measured:
A. baumannii = assay: Bactericidal activity in serum, broth or water, CFU after 4 hours (Example 2); format: cell-based
Experimental: The bactericidal activity of therapeutic compositions comprising BPI protein product and either poloxamer 333 (PLURONIC P103, BASF Wyandotte Corp.) or heat-treated PLURONIC P103, was evaluated against the clinical isolates of Example 1. Therapeutic compositions comprising 160 μg/mL rBPI21 and varying concentrations of either PLURONIC P103 or heat-treated PLURONIC P103 were formulated by diluting a 2 mg/mL solution of “non-formulated” rBPI21 (in buffer comprising 5 mM sodium citrate and 150 mM NaCl, without any surfactants) with the appropriate amounts of PLURONIC P103 or heat-treated PLURONIC P103 solutions. A “formulated” rBPI21 solution containing 2 mg/mL rBPI21, 0.2% poloxamer 188 (PLURONIC F68, BASF Wyandotte Corp.), 0.002% TWEEN 80 (polysorbate 80, ICI Americas, Wilmington, Del.), 5 mM sodium citrate and 150 mM NaCl was also tested for comparison. Poloxamer control solutions containing only 0.1% PLURONIC P103 or 0.1% heat-treated PLURONIC P103, and no rBPI21, were also prepared.
A 0.1% (w/v) solution of PLURONIC P103 was prepared by stirring the PLURONIC P103 in deionized water until dissolved and filtering the solution through a […] cellulose acetate polystyrene filter unit (Corning Inc., Corning, N.Y.). […]
The bacteria to be used in the assays were grown on tryptic soy agar (TSA) plates (Remel, Catalog #01-920, Lenexa, Kans.) for 24 hours. […] A bacterial stock emulsion was prepared by emulsifying bacterial colonies in sterile deionized water to approximately 2.2 to 3.8×10^8 colony forming units (CFU)/mL as measured by a Microscan® Turbidity Meter (Dade Microscan, West Sacramento, Calif.), and diluting further by 1:10 in water. […] Following incubation, the remaining colony forming units (CFU) in each well were counted at a 10^−2 dilution by plating 10 μL from each well onto TSA plates. The TSA plates were incubated at 37° C. for 24 hours and the number of bacterial colonies were visually counted. […]

[1] = system: S. pneumoniae (Microscan® ID no. 145); assay: Bactericidal activity in water or broth, CFU after 30 minutes and 3 hours (Example 3); format: cell-based
Experimental: The bactericidal activity of therapeutic compositions comprising BPI protein product and heat-treated PLURONIC P103 or heat-treated PLURONIC P104, was evaluated against the S. aureus and A. baumannii clinical isolates of Example 1 and the additional organisms S. pneunoniae (Microscan® ID no. 145) and E. faecium (Microscan® ID no. 15773). Therapeutic compositions comprising 500 μg/mL rBPI21 in a 0.075% (w/v) concentration of either heat-treated PLURONIC P103 or heat-treated PLURONIC P104 were formulated by diluting a 2 mg/mL solution of “non-formulated” rBPI21 or “formulated” rBPI21, with the appropriate amounts of 0.1% heat-treated PLURONIC P103 or heat-treated PLURONIC P104 solutions. Compositions comprising 500 μg/mL non-formulated rBPI21 in water alone (without any poloxamers) and poloxamer control solutions containing only 0.1% heat-treated P103 or heat-treated P104 (and no rBPI21) were also prepared A “formulated” rBPI23 therapeutic composition containing 1 mg/mL rBPI23, 0.1% PLURONIC F68 and 0.002% TWEEN 80 was also tested for comparison.
Sterile stock solutions of heat-treated PLURONIC P103 or heat-treated PLURONIC P104 were prepared using the following procedure: (1) making a 0.1% (w/v) solution of the poloxamer in deionized water, (2) heating the solution to a boil, (3) allowing it to cool to room temperature, (4) stirring until the PLURONIC P103 was completely solubilized, and (5) filtering the solution through a 0.22 μm Nalgene filter for sterilization.
The S. aureus, E. faecium and A. baumannii bacteria were grown on TSA plates (Remel, Catalog #01-920, Lenexa, Kans.), and the S. pneumoniae were grown on 5% sheep blood agar plates (Remel, Catalog# 01-200, Lenexa, Kans.) for 24 hours. A bacterial stock emulsion was prepared by emulsifying bacterial colonies in sterile deionized water to approximately 2.2 to 3.8×10^8 CFU/mL as measured by a Microscan® Turbidity Meter, and diluting further by 1:10 in water. Assays for rBPI21 therapeutic compositions were conducted in 96-well flat-bottom microtiter plates (Corning, catalog# 25860-96) by adding to each well: 185 μL of TSB (Remel, catalog #08-942, Lenexa, Kans.) or sterile water for injection (Kendall McGaw); 8 μL of the bacterial emulsion; 6.3 μL of the indicated 500 μg/mL rBPI21/poloxamer therapeutic composition (or poloxamer control solution or water alone). The final concentrations of bacteria in each well were about 4 to 7×10^5 CFU/mL. Assays for the rBPI23 therapeutic composition were conducted in the same way, except 178 μL of broth or water and 13 μL of the […] rBPI23 composition were added. The well contents were mixed and the plates were incubated at 37° C. The CFUs in each well were counted at 10^−2 and 10^−4 dilutions after 30 minutes and 3 hours of incubation. Results at 30 minutes and 3 hours, respectively, are shown below in Tables 8 and 9.

B1: rBPI21: expression product of DNA encoding amino acid 1 to approximately 193 or 199 of BPI holoprotein, cysteine 132 substituted with alanine (protein, UniProt P17213 32-224, looked up, variant C132A)
chain: VNPGVVVRISQKGLDYASQQGTAALQKELKRIKIPDYSDSFKIKHLGKGHYSFYSMDIREFQLPSSQISMVPNVGLKFSISNANIKISGKWKAQKRFLKMSGNFDLSIEGMSISADLKLGSNPTSGKPTITASSCSSHINSVHVHISKSKVGWLIQLFHKKIESALRNKMNSQVCEKVTNSVSSELQPYFQTL
A. baumannii; Broth, bacteria only >5000
  colony forming units after 4 hours: >5000 100's of CFUs
A. baumannii; Serum, bacteria only >2000
  colony forming units after 4 hours: >2000 100's of CFUs
A. baumannii; Water, bacteria only >2000
  colony forming units after 4 hours: 519 100's of CFUs
[1]; broth, Incubation for 30 minutes, Control 4 / 1
  CFUs: 4 10000 CFUs
[1]; broth, Incubation for 30 minutes, Control 389 / 350
  CFUs: 290 100 CFUs
[1]; broth, Incubation for 3 hours, Control 337
  CFUs: 447 100 CFUs
[1]; water, Incubation for 30 minutes, Control 1 / 0
  CFUs: 0 10000 CFUs
[1]; water, Incubation for 30 minutes, Control 75 / 47
  CFUs: 61 100 CFUs
[1]; water, Incubation for 3 hours, Control 0
  CFUs: 0 100 CFUs
